From patent US20250327097A1, “ORGANISMS PRODUCING LESS CROTONIC ACID” (Global Bioenergies, priority 2021, published 2025) come the findings set out here.

To fix the notation:
B1: N287Q-N388M-K394R-C430N-L432F-L434W-S436N (protein)
chain: MFLKSLREQINLLKRQGDLRIINRPVDSYLEAAAIIRRSTETKAPVPLMTNIKGYPGCSIVGGLAALSSNPEYPLSRVAMSLGLSTTASAQSIVQYLIDGLKKTPYLPVEIDSNSAPCKQNILRGEDASLAHFPIPQVHQHDGNRYVNTWGVFIVESPDGQWCNWSIQRVQYLNDRQMIALVFPSQHISDIWEEWVKIGKPMPYALVQGCEPIVPYIAGLPLLERNVNEAEYIGALYGKGIEVVKCETHDLRVPASSEVVIEGYFAITREGVEGPFGEFAGYIPNEQSLQPILSITAISWQDDPIWPVVAEGKPVDEYHTCSGIGDAAAIQNVLLTANLPVSFVWVPLYSACHLMIVSINRHWRQTHPDLTSEQLTKKVGDVIHQTRMSIKLPRIVVLDDDVDPADTESLLWALATRIHPERKRYFYESNIFPWLNCYSEEERHNRKGKRVIIDALLPENHGAISSFDYAYPDDIKQRVLMHWETDFSHD
B2: I283T-N285P-N287T-L289W-Q290E-S322T-N388M-K394R-C430A-L432F-L434W-S436N-dG462 (protein)
chain: B1 chain with I283T, N285P, Q287T, L289W, Q290E, S322T, N430A
B3: I283T-N285P-N287T-Q290E-S322T-M355C-N388M-K394R-C430A-L432F-L434W-S436N-dG462 (protein)
chain: B1 chain with I283T, N285P, Q287T, Q290E, S322T, M355C, N430A
B4: I283T-N285P-N287T-Q290E-S322T-M355T-N388M-K394R-C430A-L432F-L434W-S436N-dG462 (protein)
chain: B1 chain with I283T, N285P, Q287T, Q290E, S322T, M355T, N430A
B5: I283T-N285P-N287T-Q290E-S322T-N388S-K394R-C430A-L432F-L434W-S436N-dG462 (protein)
chain: B1 chain with I283T, N285P, Q287T, Q290E, S322T, M388S, N430A
B6: I283T-N285P-N287T-Q290E-S322T-N388M-K394R-C430A-L432F-L434W-S436N-H444R-dG462 (protein)
chain: B1 chain with I283T, N285P, Q287T, Q290E, S322T, N430A, H444R
B7: N287T-N388M-K394R-C430N-L432F-L434W-S436N (protein)
chain: B1 chain with Q287T
B8: I283T-N285P-N287T-Q290E-S322T-N388M-K394R-C430A-L432F-L434W-S436N-dG462-A470S (protein)
chain: B1 chain with I283T, N285P, Q287T, Q290E, S322T, N430A, A470S
B9: E224P-I283T-N285P-N287T-Q290E-S322T-N388M-K394R-C430A-L432F-L434W-S436N-dG462 (protein)
chain: B1 chain with E224P, I283T, N285P, Q287T, Q290E, S322T, N430A
B10: I283T-N285P-N287T-Q290E-S322T-N388M-K394H-C430A-L432F-L434W-S436N-dG462 (protein)
chain: B1 chain with I283T, N285P, Q287T, Q290E, S322T, R394H, N430A
B11: I283T-N285P-N287T-L289C-Q290E-S322T-N388M-K394R-C430A-L432F-L434W-S436N-dG462 (protein)
chain: B1 chain with I283T, N285P, Q287T, L289C, Q290E, S322T, N430A
B12: I283T-N285P-N287T-Q290E-S322T-M355V-N388M-K394R-C430A-L432F-L434W-S436N-dG462 (protein)
chain: B1 chain with I283T, N285P, Q287T, Q290E, S322T, M355V, N430A
B13: I283T-N285P-N287T-Q290E-S322T-N388M-K394R-R422D-C430A-L432F-L434W-S436N-dG462 (protein)
chain: B1 chain with I283T, N285P, Q287T, Q290E, S322T, R422D, N430A
B14: V227L-I283T-N285P-N287T-Q290E-S322T-N388M-K394R-C430A-L432F-L434W-S436N-dG462 (protein)
chain: B1 chain with V227L, I283T, N285P, Q287T, Q290E, S322T, N430A
B15: I283T-N285P-N287T-Q290E-S322T-N388M-K394R-C430A-L432F-L434W-S436N-dG462-A463F (protein)
chain: B1 chain with I283T, N285P, Q287T, Q290E, S322T, N430A, A463F
B16: I35V-Q140L-I283T-N285P-N287T-Q290E-S322T-N388M-K394R-C430A-L432F-L434W-S436N-dG462 (protein)
chain: B1 chain with I35V, Q140L, I283T, N285P, Q287T, Q290E, S322T, N430A
B17: I283T-N285P-N287T-Q290E-S322T-N388M-K394R-C430A-L432F-L434W-S436N-dG462-A463V (protein)
chain: B1 chain with I283T, N285P, Q287T, Q290E, S322T, N430A, A463V
B18: I283T-N285P-N287T-Q290E-S322T-N388M-K394R-C430A-L432F-L434W-S436N-N460G-dG462 (protein)
chain: B1 chain with I283T, N285P, Q287T, Q290E, S322T, N430A, N460G
B19: L222V-I283T-N285P-N287T-Q290E-S322T-N388M-K394R-C430A-L432F-L434W-S436N-dG462 (protein)
chain: B1 chain with L222V, I283T, N285P, Q287T, Q290E, S322T, N430A
B20: I283T-N285P-N287T-Q290E-S322T-N388M-K394R-C430A-L432F-L434W-S436N-H444T-dG462 (protein)
chain: B1 chain with I283T, N285P, Q287T, Q290E, S322T, N430A, H444T
B21: I283T-N285P-N287T-Q290E-S322T-N388M-K394R-C430A-L432F-L434W-S436N-dG462-Y471F (protein)
chain: B1 chain with I283T, N285P, Q287T, Q290E, S322T, N430A, Y471F
B22: I283T-N285P-E286A-N287T-Q290E-S322T-N388M-K394R-C430A-L432F-L434W-S436N-dG462 (protein)
chain: B1 chain with I283T, N285P, E286A, Q287T, Q290E, S322T, N430A
B23: E224Q-I283T-N285P-N287T-Q290E-S322T-N388M-K394R-C430A-L432F-L434W-S436N-dG462 (protein)
chain: B1 chain with E224Q, I283T, N285P, Q287T, Q290E, S322T, N430A
B24: I283T-N285P-N287T-L289R-Q290E-S322T-N388M-K394R-C430A-L432F-L434W-S436N-dG462 (protein)
chain: B1 chain with I283T, N285P, Q287T, L289R, Q290E, S322T, N430A
B25: I283T-N285P-N287T-Q290E-S322T-R361K-N388M-K394R-C430A-L432F-L434W-S436N-dG462 (protein)
chain: B1 chain with I283T, N285P, Q287T, Q290E, S322T, R361K, N430A
B26: I283T-N285P-N287T-Q290E-S322T-N388M-K394R-C430V-L432F-L434W-S436N-dG462 (protein)
chain: B1 chain with I283T, N285P, Q287T, Q290E, S322T, N430V
B27: I283L-N285P-N287T-Q290E-S322T-N388M-K394R-C430A-L432F-L434W-S436N-dG462 (protein)
chain: B1 chain with I283L, N285P, Q287T, Q290E, S322T, N430A
B28: I283T-N285P-N287T-Q290E-S322T-Q365T-N388M-K394R-C430A-L432F-L434W-S436N-dG462 (protein)
chain: B1 chain with I283T, N285P, Q287T, Q290E, S322T, Q365T, N430A
B29: I283T-N285P-N287T-Q290E-S322T-N388M-K394R-C430A-L432F-L434W-S436N-H444F-dG462 (protein)
chain: B1 chain with I283T, N285P, Q287T, Q290E, S322T, N430A, H444F
B30: I283T-N285P-N287T-Q290E-S322T-N388M-K394R-E421W-C430A-L432F-L434W-S436N-dG462 (protein)
chain: B1 chain with I283T, N285P, Q287T, Q290E, S322T, E421W, N430A
B31: I283T-N285P-N287T-Q290E-S322T-N388M-K394R-K423G-C430A-L432F-L434W-S436N-dG462 (protein)
chain: B1 chain with I283T, N285P, Q287T, Q290E, S322T, K423G, N430A
B32: N287R-N388M-K394R-C430N-L432F-L434W-S436N (protein)
chain: B1 chain with Q287R

Substitutions are numbered along the chain they refer to. Numbers in names are those of the source.

The test system of the experiment is 3-methylcrotonic acid. In kind it is biochemical, Yersinia frederiksenii. Details: key: “+” representing a low increase in activity; “++++” representing a high increase in activity.
On to B1, for which the “Activity relative to WT” value is recorded as “+”.
Consider B2, for which the “Activity relative to WT” value is reported as “++++”.
Under B3 stands “++++”.
Under B4 stands “++++”; under B5, “++++”; under B6, “++++”.
Under B7 stands “+”; under B8, “++++”; under B9, “++++”.
As for B10, the “Activity relative to WT” value is “++++”.
Take B11: the “Activity relative to WT” value is given as “++++”.
In the case of B12, the “Activity relative to WT” value is recorded as “++++”.
Under B13 stands “++++”; under B14, “++++”; under B15, “++++”.
On to B16, for which the “Activity relative to WT” value was “++++”.
Under B17 stands “++++”.
Under B18 stands “++++”; under B19, “++++”; under B20, “++++”.
Under B21 stands “++++”; under B22, “++++”; under B23, “++++”.
For the molecule B24, the “Activity relative to WT” value is “++++”.
Under B25 stands “++++”; under B26, “++++”; under B27, “++++”.
For B28, the “Activity relative to WT” value is “++++”.
Under B29 stands “++++”.
Under B30 stands “++++”; under B31, “++++”.
Under B32 stands “+”.
